Test: yeast display, Sf9 membrane polyspecificity reagent, FACS + sequencing; frameworks hold sequencing errors
Outline: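 Nanobodies came from a synthetic yeast display library in Saccharomyces cerevisiae BJ5465, induced with galactose for 36–48 hours and stained for 1 hour at 4 °C with 10% biotinylated, detergent-solubilized Sf9 membrane reagent. Cells were enriched on streptavidin microbeads and then FACS-sorted, with low and high (top ~1%) gates set on anti-HA fluorescence for expression and streptavidin fluorescence for reagent binding. Each polyreactivity label reflects the gate a clone came from. Genes were amplified by colony PCR, sequenced by MiSeq 2 × 250 and filtered by CDR length.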

| Sequence | polyreactivity (PSR sort gate) |
| --- | --- |
| QVQLVESGGGLVQAGGSLRLSCAASGRTFYYYAMGWYRQAPGKERELVAGINSGGSTNYADSVKGRFTISRDNAKNTVYLQMNSLKPEDTAVYYCAVEDLVSEGWGWYKEMDYWGQGTQVTVSS | low polyreactivity |
| QVQLVESGGGLVQAGGSLRLSCAASGRTFYYYAMGWYRQAPGKERELVARIRSTGRTSYADSVKGRFTISRDNAKNTVYLQMNRLKPEDTAVYYCAAKYSSTAWSRRKFDYWGQGTQVTVSS | high polyreactivity |
| QVQLVESGGGLVQAGGSLRLSCAASGRTFYYYAMGWYRQAPGKERELVASISRRGGSTYYADSVKGRFTISRDNAKNTVYLQMNSLKPEDTAVYYCAASHYHGYSLGYDYWGQGTQVTVSS | high polyreactivity |
| QVQLVESGGGLVQAGGSLRLSCAASGRTFYYYAMGWYRQAPGKERELVATITSSGGSTYYADSVKGRFTISRDNAKNTVYLQINSLIPEDTAVYYCARTYTYKGGNTHSRWYYYWGQGTHVTVSS | high polyreactivity |
| QVQLVESGGGLVQAGGSLRLSCAASGRTFYYYAMGWYRQAPGKEWELVAAIRGGGGSTYADSVKGRFTISRDNAKNTVYLQMNSLKPEDTAVYYCNVVRTGRYPGFLTFDYWGQGTQVTVSS | high polyreactivity |
| QVQLVESGGGLVQAGGSLRLSCAASGRTFYYYAMGWYRQAPGTERELLAAISWSVGRTYYADSVKGRFTISRDNAKNTVYLQMNSLKPEDTAVYFCNAEPPRGYTVSSGREMVYWGQGTQVTGSS | low polyreactivity |
| QVQLVESGGGLVQAGGSLRLSCAASGRTFYYYARGWYRQAPGKERELVAAISSRGGSTYYADSVKGRFTISRDNAKNTVYLQMNSLKPEDTAVYYCAAERYFVLYRYYSYAYYYWGQGTQVTVSS | high polyreactivity |
| QVQLVESGGGLVQAGGSLRLSCAASGRTFYYYSMGWYIQAPGKEREFVAAISYRGGSTYYADSVKGRFTITRDNAKNTVYFQMNSLNPEDTAVYYCAAGLVYLFISHNDYWGQGTQVTVSS | low polyreactivity |
| QVQLVESGGGLVQAGGSLRLSCAASGRTFYYYTRGWYRQAPGKERELVAAISRRGGRTYYADSVKGRFTISRDNAKNTVYLQMNSLKPEDTAVYNCAKETPHCPGLGGYDYWGQGTQVTVSS | high polyreactivity |
| QVQLVESGGGLVQAGGSLRLSCAASGRTFYYYVKGWDRQAPGKERELVAAITIRGGSTYYADSVKGRFTNSRDNAKNTVYLQMNSLKPEDTAVYYCNARGGSSTYGNYYWGQGTQVTVSS | low polyreactivity |
| QVQLVESGGGLVQAGGSLRLSCAASGRTFYYYVMGWYIQAPGKERELVAAITLRGGSTYYADSVKGRFTISRDNAKNTVYLQMNSLKPEDTAVYYCNARGGSSTYGNYYWGQGTQVTVSS | low polyreactivity |
| QVQLVESGGGLVQAGGSLRLSCAASGRTIDHYAMGWYRQAPGKERELVAAISTTGGSTYYADSVKGRFTISRDNAKNTVYLQMNSLKPEDTAVYYCAAQLGWWGSGYWGQGTQVTVSS | high polyreactivity |
| QVQLVESGGGLVQAGGSLRLSCAASGRTIDSYAMGRNRQAPGKERELVAAISWGGGSTYYADSVKGRFTISRDNAKNTVYLQMNSLKPEDTAVYYCAARWNYTEFDYWGQGTQVTVSS | low polyreactivity |
| QVQLVESGGGLVQAGGSLRLSCAASGRTIGLNGMGWYRQAPGKERELVAGISLSGGSTNYADSVKGRFTISRDNAKNTVYLQMNSLKPEDTAVYYCAADFVYYVVNDFGWSYAYEYWGQGTQVTVSS | low polyreactivity |
| QVQLVESGGGLVQAGGSLRLSCAASGRTIGVYAMGWYRQAPGKERELVAGITTSGDSTYYADSVKGRFTISRDNAKNTVYLQMNSLKPEDTAVYYCNADVLFFYTPTSEYDYWGQGTQVTVSS | low polyreactivity |
| QVQLVESGGGLVQAGGSLRLSCAASGRTIGWYTMGWYRQERGKERELVAAISGRGGSTTYADSVKGRFTISRDNAKNTVYLQMNSLKPEDTAVYYCAKRRVRGTTRRYGYWGQGTQVTVSS | high polyreactivity |

| Sequence | polyreactivity (PSR sort gate) |
| --- | --- |
| QVQLVESGGGLVQAGGSLRLSCAASGRTIGYYAMGWYRQAPGKERELVAAITWSGGNTYYADSVKGRFTISRDNAKNTVYLQMNSLKPEDTAVYYCNALYLWGMDYWGQGTQVTVSS | low polyreactivity |
| QVQLVESGGGLVQAGGSLRLSCAASGRTILGNAMGWYRQAPGKEREFVATISKTGGSTYYADSVKGRFTISRDNAKNTVYLQMISLKPEDTAVYYCAVEIVSYVYGWLVDYDYWGQGTQVTVSS | low polyreactivity |
| QVQLVESGGGLVQAGGSLRLSCAASGRTIPIYAMGWYRQAPGKERELVAAITRGGRTNYADSVKGRFTISRDNAKNTVYLQMNSLKPEDTAVYYCAARTYGTYLYAEYDYWGQGTQVTVSS | high polyreactivity |
| QVQLVESGGGLVQAGGSLRLSCAASGRTIRGNARGWYIQAPGKERELVAVNTASGSTTYADSVKGRFTISRDNAKNTVYLQMNSLKSEDTAVYYCAKYVPWYTLWLGGTDRDYWGQGTQVTVSS | low polyreactivity |
| QVQLVESGGGLVQAGGSLRLSCAASGRTIRHNAMGWYRQARGKERELVAAISRSGGSTYYADSVKGRFTISRDNAKNTVYLQMNSLKPEDTAVYYCAAGYHIIYTPEYYYWGQGTQVTVSS | high polyreactivity |
| QVQLVESGGGLVQAGGSLRLSCAASGRTIRRNARGWYRQAPGKERELVAGISGSGTITYADSVKGRVTISRDNAKNTVYLQMNSLKPEDTAVYYCAARRKSFYTFYYWGQGTKVTVSS | high polyreactivity |
| QVQLVESGGGLVQAGGSLRLSCAASGRTIRSYAMGWYSPAPGKERELVAAITGSGGRTYYADSVKGRFTISRDNATNTVYLQMNSLKPEDTAVYYCAARLRGSYDYWGQGTQVTVSS | high polyreactivity |
| QVQLVESGGGLVQAGGSLRLSCAASGRTIRWYAMGWYRQAPGKERELVAAITWIGGSTYYADSVKGRFTISRDNAKNTVYLQMNSLQPEDTAVYYCATDKDDVSDLGKDYAYFEYDYWGQGTQVTVSS | low polyreactivity |
| QVQLVESGGGLVQAGGSLRLSCAASGRTISFYAMGWYRQAPGKERELVAAISRSGGSTYYADSVKGRFTISRDNAKNTVYLQMNSLKPEDTAVYYCAARDQYRWYKYDYWGQGTQVTVSS | high polyreactivity |
| QVQLVESGGGLVQAGGSLRLSCAASGRTISYYAMGWYRQAPGKERELVAAITSSGSRTYYADSVKGRFTISRDNAKNTVYLQMNSLKPEDTAVYYCAAGKPYFRYDSWGQGTQVTVSS | high polyreactivity |
| QVQLVESGGGLVQAGGSLRLSCAASGRTITKYVMGWYRHAPGKERELVAAITSSGSSTYYADSVKGRFTISRDNAKNTVYLQMNSLKPEDTAVYYCAARRGAPFARQYDYWGQGTQVTVSS | high polyreactivity |
| QVQLVESGGGLVQAGGSLRLSCAASGRTITYYAMGWYRQAPGKERELVAAISSAGRTNYAVSVKGRFTISRDNAKNTVYLQMNCLKPEDTAVYYCAKRYGWASGYWNSNYGYLYDYWGQGTLVTVSS | high polyreactivity |
| QVQLVESGGGLVQAGGSLRLSCAASGRTIVYNAMGWYRQAPGKESELVAAITSGGRTYYADSVKGRFTISRDNAKNTVYLQMNSVKPEDTAVYYCATDYYGPDYPLDYWGQGTQVTVSS | low polyreactivity |
| QVQLVESGGGLVQAGGSLRLSCAASGRTIWVYAMGWYRQAPGKERELVAAIRWSAGTTYYADSVKGRFTISRDNAKNTVYLQMNSLKPEDTAVYYCAADASSRYGVLEVDYWGQGTQVTVSS | high polyreactivity |
| QVQLVESGGGLVQAGGSLRLSCAASGRTIWYYAKGWYRQAPGKERELVAAITRGGRTNYADSVKGRFTISRDNAKNTVDLQMNSLKPEDTAVYYCAADYRDPAHSYGYWGQGTQVTVSS | high polyreactivity |

From the nanobody polyreactivity screen of Harvey et al. (2022)
